Molecular target: T1, GST-tagged TOP-2 (C. elegans, UniProt Q23670 1-1520)
T1 construct: TOP-2, topoisomerase II of C. elegans; also called topoisomerase II; source: E. coli BL21, purified (glutathione sepharose 4B)
Experiment: pull-down; 3 μg GST-tagged protein on glutathione sepharose 4B beads with 1 μg HIS-tagged NMAD-1 in TAP wash buffer (50 mM Tris-HCl pH 8.0, 100 mM KCl), 1 h at 4 °C; blot probed with HIS antibody
Details: both partners purified

T1 sequence (Q23670 whole entry): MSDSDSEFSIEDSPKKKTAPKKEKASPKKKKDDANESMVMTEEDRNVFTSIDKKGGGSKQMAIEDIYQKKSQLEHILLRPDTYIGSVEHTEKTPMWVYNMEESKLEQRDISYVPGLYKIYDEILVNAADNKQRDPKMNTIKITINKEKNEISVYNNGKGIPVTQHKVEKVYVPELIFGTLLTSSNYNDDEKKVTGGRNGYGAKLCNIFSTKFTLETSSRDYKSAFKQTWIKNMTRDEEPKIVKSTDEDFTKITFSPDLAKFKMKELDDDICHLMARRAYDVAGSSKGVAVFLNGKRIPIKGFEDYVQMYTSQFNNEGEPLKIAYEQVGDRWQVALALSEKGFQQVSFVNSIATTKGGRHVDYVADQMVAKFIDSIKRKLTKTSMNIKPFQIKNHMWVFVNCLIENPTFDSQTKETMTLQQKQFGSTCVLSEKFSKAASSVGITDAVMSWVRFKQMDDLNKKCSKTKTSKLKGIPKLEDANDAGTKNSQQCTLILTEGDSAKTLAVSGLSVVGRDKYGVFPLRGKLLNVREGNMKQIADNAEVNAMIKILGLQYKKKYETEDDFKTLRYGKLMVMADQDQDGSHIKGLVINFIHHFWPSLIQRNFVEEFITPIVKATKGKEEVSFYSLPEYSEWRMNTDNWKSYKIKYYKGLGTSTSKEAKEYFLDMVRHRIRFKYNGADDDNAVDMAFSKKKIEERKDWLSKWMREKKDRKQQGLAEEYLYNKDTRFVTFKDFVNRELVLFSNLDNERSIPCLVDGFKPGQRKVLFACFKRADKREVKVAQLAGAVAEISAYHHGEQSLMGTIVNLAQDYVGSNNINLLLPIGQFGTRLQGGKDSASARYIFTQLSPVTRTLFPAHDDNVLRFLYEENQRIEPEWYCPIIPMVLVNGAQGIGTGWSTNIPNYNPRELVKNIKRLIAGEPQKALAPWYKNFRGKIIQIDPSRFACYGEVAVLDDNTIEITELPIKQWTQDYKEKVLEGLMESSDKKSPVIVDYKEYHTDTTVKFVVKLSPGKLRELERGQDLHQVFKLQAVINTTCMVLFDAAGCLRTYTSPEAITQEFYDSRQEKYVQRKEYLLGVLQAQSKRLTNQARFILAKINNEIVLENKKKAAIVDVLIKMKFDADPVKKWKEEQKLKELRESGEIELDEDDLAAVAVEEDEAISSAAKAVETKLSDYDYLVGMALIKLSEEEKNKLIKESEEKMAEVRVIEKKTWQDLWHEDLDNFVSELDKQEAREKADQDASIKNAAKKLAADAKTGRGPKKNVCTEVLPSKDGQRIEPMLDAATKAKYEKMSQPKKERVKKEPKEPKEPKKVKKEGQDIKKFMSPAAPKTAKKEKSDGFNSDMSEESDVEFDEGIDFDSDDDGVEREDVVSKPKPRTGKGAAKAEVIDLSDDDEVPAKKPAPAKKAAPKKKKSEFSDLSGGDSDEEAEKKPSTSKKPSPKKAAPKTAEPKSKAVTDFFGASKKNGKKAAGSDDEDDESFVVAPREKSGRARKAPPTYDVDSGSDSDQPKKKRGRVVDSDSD

binding result: binds
B1: recombinant His-tagged NMAD-1 (enzyme, C. elegans, UniProt Q8MNT9 1-291, looked up)
chain: MGSAEQACGCKGARFCALCETTERVKKLRVVEDKHVNYKVFIYDHIRQIAIPTTNLNSQSSLEDIIDESTSCQSVSTDGSIEIDGLTLIHNFLSESEESKILNMIDTVEWAQSQSGRRKQDYGPKVNFKHKKVKTDTFVGMPEYADMLLNKMSEYDVKKLGNYQPFEMCNLEYEEVKKSAIEMHQDDMWIWGNRLISINLINGSVMTLSNDNKSFLCYVHMPHRSLLCMADECRYDWKHGVLAHHIRGRRIALTMREAAKDFAEGGELYEKYGAELIRLGNIRVPLSKTSV
notes: NMAD-1 (F09F7.7) of C. elegans; also called HIS:NMAD-1; source: E. coli BL21, purified (Ni-NTA)
